Experimental data taken from patent US12679878B2, “CRF2 receptor agonists and their use in therapy” (SANOFI, priority 2020, dated 2026).
Starred links: 1 amine or outer side, 2 acyl side, 3 side chain; linkers in the order of their positions; H or OH if unused. Non-standard residues stand in square brackets, D forms with d. Groups on a side chain read outwards from the residue. No end group written: not given here. *: point of attachment. C18 diacid = O=C(O)CCCCCCCCCCCCCCCCC(=O)*; γGlu = O=C(O)[C@H](CCC(=O)[*:2])N[*:1]; AEEA = NCCOCCOCC(=O)O; Aib = CC(C)(N)C(=O)O

T1: CRF1R receptor (anti-target) (UniProt P34998 24-415, limits assumed)
T1 sequence (looked up): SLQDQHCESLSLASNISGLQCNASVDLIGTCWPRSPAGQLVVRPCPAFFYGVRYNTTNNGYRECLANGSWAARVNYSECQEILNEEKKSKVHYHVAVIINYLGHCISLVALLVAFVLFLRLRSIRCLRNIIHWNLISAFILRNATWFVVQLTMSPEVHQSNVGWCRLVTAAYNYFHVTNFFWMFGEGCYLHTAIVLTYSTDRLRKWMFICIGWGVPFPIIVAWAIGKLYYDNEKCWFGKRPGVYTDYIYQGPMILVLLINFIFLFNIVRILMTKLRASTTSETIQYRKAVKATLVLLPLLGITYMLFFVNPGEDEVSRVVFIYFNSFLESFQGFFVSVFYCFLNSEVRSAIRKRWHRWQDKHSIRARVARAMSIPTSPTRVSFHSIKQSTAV


target: T1, CRF1R receptor (anti-target); test: cell-based or functional assay

EC50 [nM] 0% HSA (cAMP, HTRF) | Emax (%) (100% = Sauvagine at 100 nM) | Binder
> 100 nM | -1.1% | IVLSLDVPIKLK([AEEA-AEEA-γGlu-C18 diacid])QILLKQERQKKQREKAEKNKQILAQV-NH2 (N-terminus assumed; SMILES CC[C@H](C)[C@H](N)C(=O)N[C@H](C(=O)N[C@@H](CC(C)C)C(=O)N[C@@H](CO)C(=O)N[C@@H](CC(C)C)C(=O)N[C@@H](CC(=O)O)C(=O)N[C@H](C(=O)N1CCC[C@H]1C(=O)N[C@H](C(=O)N[C@@H](CCCCN)C(=O)N[C@@H](CC(C)C)C(=O)N[C@@H](CCCCNC(=O)COCCOCCNC(=O)COCCOCCNC(=O)CC[C@H](NC(=O)CCCCCCCCCCCCCCCCC(=O)O)C(=O)O)C(=O)N[C@@H](CCC(N)=O)C(=O)N[C@H](C(=O)N[C@@H](CC(C)C)C(=O)N[C@@H](CC(C)C)C(=O)N[C@@H](CCCCN)C(=O)N[C@@H](CCC(N)=O)C(=O)N[C@@H](CCC(=O)O)C(=O)N[C@@H](CCCNC(=N)N)C(=O)N[C@@H](CCC(N)=O)C(=O)N[C@@H](CCCCN)C(=O)N[C@@H](CCCCN)C(=O)N[C@@H](CCC(N)=O)C(=O)N[C@@H](CCCNC(=N)N)C(=O)N[C@@H](CCC(=O)O)C(=O)N[C@@H](CCCCN)C(=O)N[C@@H](C)C(=O)N[C@@H](CCC(=O)O)C(=O)N[C@@H](CCCCN)C(=O)N[C@@H](CC(N)=O)C(=O)N[C@@H](CCCCN)C(=O)N[C@@H](CCC(N)=O)C(=O)N[C@H](C(=O)N[C@@H](CC(C)C)C(=O)N[C@@H](C)C(=O)N[C@@H](CCC(N)=O)C(=O)N[C@H](C(N)=O)C(C)C)[C@@H](C)CC)[C@@H](C)CC)[C@@H](C)CC)C(C)C)C(C)C) [peptide of SEQ ID NO: 121]
> 100 nM | 6.9% | IVLSLDVPIKLK([AEEA-AEEA-γGlu-C18 diacid])QILLKQERQKKQRQQAEKNKQILAQV-NH2 (N-terminus assumed; SMILES CC[C@H](C)[C@H](N)C(=O)N[C@H](C(=O)N[C@@H](CC(C)C)C(=O)N[C@@H](CO)C(=O)N[C@@H](CC(C)C)C(=O)N[C@@H](CC(=O)O)C(=O)N[C@H](C(=O)N1CCC[C@H]1C(=O)N[C@H](C(=O)N[C@@H](CCCCN)C(=O)N[C@@H](CC(C)C)C(=O)N[C@@H](CCCCNC(=O)COCCOCCNC(=O)COCCOCCNC(=O)CC[C@H](NC(=O)CCCCCCCCCCCCCCCCC(=O)O)C(=O)O)C(=O)N[C@@H](CCC(N)=O)C(=O)N[C@H](C(=O)N[C@@H](CC(C)C)C(=O)N[C@@H](CC(C)C)C(=O)N[C@@H](CCCCN)C(=O)N[C@@H](CCC(N)=O)C(=O)N[C@@H](CCC(=O)O)C(=O)N[C@@H](CCCNC(=N)N)C(=O)N[C@@H](CCC(N)=O)C(=O)N[C@@H](CCCCN)C(=O)N[C@@H](CCCCN)C(=O)N[C@@H](CCC(N)=O)C(=O)N[C@@H](CCCNC(=N)N)C(=O)N[C@@H](CCC(N)=O)C(=O)N[C@@H](CCC(N)=O)C(=O)N[C@@H](C)C(=O)N[C@@H](CCC(=O)O)C(=O)N[C@@H](CCCCN)C(=O)N[C@@H](CC(N)=O)C(=O)N[C@@H](CCCCN)C(=O)N[C@@H](CCC(N)=O)C(=O)N[C@H](C(=O)N[C@@H](CC(C)C)C(=O)N[C@@H](C)C(=O)N[C@@H](CCC(N)=O)C(=O)N[C@H](C(N)=O)C(C)C)[C@@H](C)CC)[C@@H](C)CC)[C@@H](C)CC)C(C)C)C(C)C) [peptide of SEQ ID NO: 122]

Continued, binder first:

Binder | EC50 [nM] 0% HSA (cAMP, HTRF) | Emax (%) (100% = Sauvagine at 100 nM)
IVLSLD[dV]PIKLK([AEEA-AEEA-γGlu-C18 diacid])QILLKQERQK[Aib]QRQKAEKNKQILAQV-NH2 (N-terminus assumed; SMILES CC[C@H](C)[C@H](N)C(=O)N[C@H](C(=O)N[C@@H](CC(C)C)C(=O)N[C@@H](CO)C(=O)N[C@@H](CC(C)C)C(=O)N[C@@H](CC(=O)O)C(=O)N[C@@H](C(=O)N1CCC[C@H]1C(=O)N[C@H](C(=O)N[C@@H](CCCCN)C(=O)N[C@@H](CC(C)C)C(=O)N[C@@H](CCCCNC(=O)COCCOCCNC(=O)COCCOCCNC(=O)CC[C@H](NC(=O)CCCCCCCCCCCCCCCCC(=O)O)C(=O)O)C(=O)N[C@@H](CCC(N)=O)C(=O)N[C@H](C(=O)N[C@@H](CC(C)C)C(=O)N[C@@H](CC(C)C)C(=O)N[C@@H](CCCCN)C(=O)N[C@@H](CCC(N)=O)C(=O)N[C@@H](CCC(=O)O)C(=O)N[C@@H](CCCNC(=N)N)C(=O)N[C@@H](CCC(N)=O)C(=O)N[C@@H](CCCCN)C(=O)NC(C)(C)C(=O)N[C@@H](CCC(N)=O)C(=O)N[C@@H](CCCNC(=N)N)C(=O)N[C@@H](CCC(N)=O)C(=O)N[C@@H](CCCCN)C(=O)N[C@@H](C)C(=O)N[C@@H](CCC(=O)O)C(=O)N[C@@H](CCCCN)C(=O)N[C@@H](CC(N)=O)C(=O)N[C@@H](CCCCN)C(=O)N[C@@H](CCC(N)=O)C(=O)N[C@H](C(=O)N[C@@H](CC(C)C)C(=O)N[C@@H](C)C(=O)N[C@@H](CCC(N)=O)C(=O)N[C@H](C(N)=O)C(C)C)[C@@H](C)CC)[C@@H](C)CC)[C@@H](C)CC)C(C)C)C(C)C) [peptide of SEQ ID NO: 118] | > 100 nM | 1.5%
IVLSLDVPIKLK([AEEA-AEEA-γGlu-C18 diacid])QILLKQERQK[Aib]QREKAEKNKQILAQV-NH2 (N-terminus assumed; SMILES CC[C@H](C)[C@H](N)C(=O)N[C@H](C(=O)N[C@@H](CC(C)C)C(=O)N[C@@H](CO)C(=O)N[C@@H](CC(C)C)C(=O)N[C@@H](CC(=O)O)C(=O)N[C@H](C(=O)N1CCC[C@H]1C(=O)N[C@H](C(=O)N[C@@H](CCCCN)C(=O)N[C@@H](CC(C)C)C(=O)N[C@@H](CCCCNC(=O)COCCOCCNC(=O)COCCOCCNC(=O)CC[C@H](NC(=O)CCCCCCCCCCCCCCCCC(=O)O)C(=O)O)C(=O)N[C@@H](CCC(N)=O)C(=O)N[C@H](C(=O)N[C@@H](CC(C)C)C(=O)N[C@@H](CC(C)C)C(=O)N[C@@H](CCCCN)C(=O)N[C@@H](CCC(N)=O)C(=O)N[C@@H](CCC(=O)O)C(=O)N[C@@H](CCCNC(=N)N)C(=O)N[C@@H](CCC(N)=O)C(=O)N[C@@H](CCCCN)C(=O)NC(C)(C)C(=O)N[C@@H](CCC(N)=O)C(=O)N[C@@H](CCCNC(=N)N)C(=O)N[C@@H](CCC(=O)O)C(=O)N[C@@H](CCCCN)C(=O)N[C@@H](C)C(=O)N[C@@H](CCC(=O)O)C(=O)N[C@@H](CCCCN)C(=O)N[C@@H](CC(N)=O)C(=O)N[C@@H](CCCCN)C(=O)N[C@@H](CCC(N)=O)C(=O)N[C@H](C(=O)N[C@@H](CC(C)C)C(=O)N[C@@H](C)C(=O)N[C@@H](CCC(N)=O)C(=O)N[C@H](C(N)=O)C(C)C)[C@@H](C)CC)[C@@H](C)CC)[C@@H](C)CC)C(C)C)C(C)C) [peptide of SEQ ID NO: 116] | > 100 nM | 0.8%
IVLSLDVPIKLK([AEEA-AEEA-γGlu-C18 diacid])QILLKQERQK[Aib]QRQQAEKNKQILAQV-NH2 (N-terminus assumed; SMILES CC[C@H](C)[C@H](N)C(=O)N[C@H](C(=O)N[C@@H](CC(C)C)C(=O)N[C@@H](CO)C(=O)N[C@@H](CC(C)C)C(=O)N[C@@H](CC(=O)O)C(=O)N[C@H](C(=O)N1CCC[C@H]1C(=O)N[C@H](C(=O)N[C@@H](CCCCN)C(=O)N[C@@H](CC(C)C)C(=O)N[C@@H](CCCCNC(=O)COCCOCCNC(=O)COCCOCCNC(=O)CC[C@H](NC(=O)CCCCCCCCCCCCCCCCC(=O)O)C(=O)O)C(=O)N[C@@H](CCC(N)=O)C(=O)N[C@H](C(=O)N[C@@H](CC(C)C)C(=O)N[C@@H](CC(C)C)C(=O)N[C@@H](CCCCN)C(=O)N[C@@H](CCC(N)=O)C(=O)N[C@@H](CCC(=O)O)C(=O)N[C@@H](CCCNC(=N)N)C(=O)N[C@@H](CCC(N)=O)C(=O)N[C@@H](CCCCN)C(=O)NC(C)(C)C(=O)N[C@@H](CCC(N)=O)C(=O)N[C@@H](CCCNC(=N)N)C(=O)N[C@@H](CCC(N)=O)C(=O)N[C@@H](CCC(N)=O)C(=O)N[C@@H](C)C(=O)N[C@@H](CCC(=O)O)C(=O)N[C@@H](CCCCN)C(=O)N[C@@H](CC(N)=O)C(=O)N[C@@H](CCCCN)C(=O)N[C@@H](CCC(N)=O)C(=O)N[C@H](C(=O)N[C@@H](CC(C)C)C(=O)N[C@@H](C)C(=O)N[C@@H](CCC(N)=O)C(=O)N[C@H](C(N)=O)C(C)C)[C@@H](C)CC)[C@@H](C)CC)[C@@H](C)CC)C(C)C)C(C)C) [peptide of SEQ ID NO: 117] | > 100 nM | -6%
IVLSLDVPIKLK([AEEA-AEEA-γGlu-C18 diacid])QILLKQERQKK[Aib]RQKAEKNKQILAQV-NH2 (N-terminus assumed; SMILES CC[C@H](C)[C@H](N)C(=O)N[C@H](C(=O)N[C@@H](CC(C)C)C(=O)N[C@@H](CO)C(=O)N[C@@H](CC(C)C)C(=O)N[C@@H](CC(=O)O)C(=O)N[C@H](C(=O)N1CCC[C@H]1C(=O)N[C@H](C(=O)N[C@@H](CCCCN)C(=O)N[C@@H](CC(C)C)C(=O)N[C@@H](CCCCNC(=O)COCCOCCNC(=O)COCCOCCNC(=O)CC[C@H](NC(=O)CCCCCCCCCCCCCCCCC(=O)O)C(=O)O)C(=O)N[C@@H](CCC(N)=O)C(=O)N[C@H](C(=O)N[C@@H](CC(C)C)C(=O)N[C@@H](CC(C)C)C(=O)N[C@@H](CCCCN)C(=O)N[C@@H](CCC(N)=O)C(=O)N[C@@H](CCC(=O)O)C(=O)N[C@@H](CCCNC(=N)N)C(=O)N[C@@H](CCC(N)=O)C(=O)N[C@@H](CCCCN)C(=O)N[C@@H](CCCCN)C(=O)NC(C)(C)C(=O)N[C@@H](CCCNC(=N)N)C(=O)N[C@@H](CCC(N)=O)C(=O)N[C@@H](CCCCN)C(=O)N[C@@H](C)C(=O)N[C@@H](CCC(=O)O)C(=O)N[C@@H](CCCCN)C(=O)N[C@@H](CC(N)=O)C(=O)N[C@@H](CCCCN)C(=O)N[C@@H](CCC(N)=O)C(=O)N[C@H](C(=O)N[C@@H](CC(C)C)C(=O)N[C@@H](C)C(=O)N[C@@H](CCC(N)=O)C(=O)N[C@H](C(N)=O)C(C)C)[C@@H](C)CC)[C@@H](C)CC)[C@@H](C)CC)C(C)C)C(C)C) [peptide of SEQ ID NO: 119] | > 100 nM | 0.4%
